Drawing on PMC9482650, “Quantitative fragmentomics allow affinity mapping of interactomes” (Nature Communications, 2022), this text covers pKd for four molecules.

Some targets named below: DLG1_1, Q12959; FRMPD3, Q5JV73; HTRA1, Q92743; IL16_1, Q14005; PTPN3, P26045; PARD3_3, Q8TEW0; GRID2IP_1, A4D2P6; LNX1_1, Q8TBB1; GRIP2_7, Q9C0E4; LNX1_2, Q8TBB1; GRIP2_4, Q9C0E4.
What all share (assay): holdup assay
Design in all cases: key: below the threshold = too weak to quantify, mostly under pKd 3.1 to 4

The next assay deals with T1, SNTG1, Q9NSN8.
T1 sequence (Q9NSN8 52-150, limits assumed, looked up): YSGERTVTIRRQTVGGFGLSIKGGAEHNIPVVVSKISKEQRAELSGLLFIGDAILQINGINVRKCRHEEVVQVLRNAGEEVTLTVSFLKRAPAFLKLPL

The next assay deals with T2, LNX2_2, Q8N448.
T2 sequence (Q8N448 334-432, limits assumed, looked up): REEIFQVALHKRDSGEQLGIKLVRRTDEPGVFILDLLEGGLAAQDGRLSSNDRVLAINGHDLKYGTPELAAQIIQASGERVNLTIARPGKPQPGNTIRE

For the next assay, the target named is T3, TJP3_3, O95049.
T3 sequence (O95049 375-456, limits assumed, looked up): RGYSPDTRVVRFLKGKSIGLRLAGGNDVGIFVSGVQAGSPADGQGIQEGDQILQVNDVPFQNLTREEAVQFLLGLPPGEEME

For the next assay, the target named is T4, PCLO, Q9Y6V0.
T4 sequence (Q9Y6V0 4491-4600, limits assumed, looked up): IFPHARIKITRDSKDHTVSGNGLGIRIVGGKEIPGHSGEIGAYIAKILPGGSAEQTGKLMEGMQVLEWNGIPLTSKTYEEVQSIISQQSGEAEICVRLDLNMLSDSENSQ

A further assay concerns the target T5, PTPN13_1, Q12923.
T5 sequence (Q12923 1088-1188, limits assumed, looked up): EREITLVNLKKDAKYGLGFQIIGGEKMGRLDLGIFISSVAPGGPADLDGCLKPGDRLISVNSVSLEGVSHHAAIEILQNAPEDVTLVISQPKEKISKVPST

The target of a further assay is T6, LIN7C, Q9NUP9.
T6 sequence (Q9NUP9 88-185, limits assumed, looked up): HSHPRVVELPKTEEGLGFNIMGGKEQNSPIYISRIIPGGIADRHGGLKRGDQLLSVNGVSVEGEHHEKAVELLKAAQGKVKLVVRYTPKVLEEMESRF

The target of the next assay is T7, APBA2_2, Q99767.
T7 sequence (Q99767 654-744, limits assumed, looked up): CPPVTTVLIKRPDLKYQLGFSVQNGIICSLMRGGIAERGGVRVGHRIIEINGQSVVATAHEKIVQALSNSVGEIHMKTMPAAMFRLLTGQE

Another assay has as its target T8, GRIP1_3, Q9Y3R0.
T8 sequence (Q9Y3R0 247-346, limits assumed, looked up): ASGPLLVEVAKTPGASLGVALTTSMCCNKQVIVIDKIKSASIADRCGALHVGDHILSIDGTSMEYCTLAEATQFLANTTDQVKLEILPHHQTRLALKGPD

Another assay addresses T9, APBA3_1, O96018.
T9 sequence (O96018 389-490, limits assumed, looked up): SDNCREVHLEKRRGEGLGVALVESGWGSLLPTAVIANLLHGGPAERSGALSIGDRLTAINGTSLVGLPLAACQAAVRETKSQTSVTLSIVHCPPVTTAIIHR

The target of the next assay is T10, LNX2_3, Q8N448.
T10 sequence (Q8N448 463-564, limits assumed, looked up): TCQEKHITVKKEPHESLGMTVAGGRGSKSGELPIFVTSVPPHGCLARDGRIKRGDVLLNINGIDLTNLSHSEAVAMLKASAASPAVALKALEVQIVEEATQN

The target in a further assay is T11, ARHGAP21, Q5T5U3.
T11 sequence (Q5T5U3 45-169, limits assumed, looked up): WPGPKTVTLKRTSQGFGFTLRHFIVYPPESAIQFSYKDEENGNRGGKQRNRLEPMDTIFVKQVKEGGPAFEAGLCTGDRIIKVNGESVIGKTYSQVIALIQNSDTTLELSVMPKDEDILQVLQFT

The target in another assay is T12, MPDZ_12, O75970.
T12 sequence (O75970 1857-1958, limits assumed, looked up): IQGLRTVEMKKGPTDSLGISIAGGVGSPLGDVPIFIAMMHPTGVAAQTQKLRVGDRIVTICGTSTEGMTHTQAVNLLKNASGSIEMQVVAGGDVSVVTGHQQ

For the next assay, the target named is T13, SYNJ2BP, P57105.
T13 sequence (P57105 8-110, limits assumed, looked up): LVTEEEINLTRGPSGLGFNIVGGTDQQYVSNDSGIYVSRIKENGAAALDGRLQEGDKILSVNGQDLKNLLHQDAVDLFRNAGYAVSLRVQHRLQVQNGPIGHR

Where [1] appears, read: plain residues with an end cap or a label only (N-terminal biotin on a linker: ado-ado, ttds).
The mark [2] stands for this setting: plain residues with an end cap or a label only (N-terminal biotin on a linker: ahx).
The mark [3] stands for this setting: plain residues with an end cap or a label only (N-terminal biotin on a linker: ttds).

GRIP2_7, Q9C0E4, sequence (Q9C0E4 934-1023): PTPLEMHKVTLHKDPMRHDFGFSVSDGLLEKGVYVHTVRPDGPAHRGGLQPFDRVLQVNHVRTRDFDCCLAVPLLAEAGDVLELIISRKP
PARD3_3, Q8TEW0, sequence (Q8TEW0 582-685): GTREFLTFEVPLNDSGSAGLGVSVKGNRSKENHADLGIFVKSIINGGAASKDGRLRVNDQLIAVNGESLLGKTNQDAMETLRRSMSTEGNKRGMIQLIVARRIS
LNX1_1, Q8TBB1, sequence (Q8TBB1 261-371): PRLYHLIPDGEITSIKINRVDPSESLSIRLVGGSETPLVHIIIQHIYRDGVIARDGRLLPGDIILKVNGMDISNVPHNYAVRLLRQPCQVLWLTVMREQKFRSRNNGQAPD
GRIP2_4, Q9C0E4, sequence (Q9C0E4 446-548): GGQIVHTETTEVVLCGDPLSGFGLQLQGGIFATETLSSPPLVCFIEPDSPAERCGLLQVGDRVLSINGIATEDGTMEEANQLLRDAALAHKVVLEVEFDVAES
GRID2IP_1, A4D2P6, sequence (A4D2P6 1-87): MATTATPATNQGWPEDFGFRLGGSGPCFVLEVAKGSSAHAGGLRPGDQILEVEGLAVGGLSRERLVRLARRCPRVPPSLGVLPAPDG
LNX1_2, Q8TBB1, sequence (Q8TBB1 371-470): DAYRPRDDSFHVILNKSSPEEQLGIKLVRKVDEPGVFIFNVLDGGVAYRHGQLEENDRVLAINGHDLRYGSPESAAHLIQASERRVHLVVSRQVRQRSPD
HTRA1, Q92743, sequence (Q92743 360-477): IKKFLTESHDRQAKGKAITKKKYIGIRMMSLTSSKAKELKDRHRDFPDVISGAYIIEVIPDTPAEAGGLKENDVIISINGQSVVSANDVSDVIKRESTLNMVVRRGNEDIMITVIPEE
IL16_1, Q14005, sequence (Q14005 210-306): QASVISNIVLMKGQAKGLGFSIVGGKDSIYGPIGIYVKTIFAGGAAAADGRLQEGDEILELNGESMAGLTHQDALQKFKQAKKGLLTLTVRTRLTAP
FRMPD3, Q5JV73, sequence (Q5JV73 12-100): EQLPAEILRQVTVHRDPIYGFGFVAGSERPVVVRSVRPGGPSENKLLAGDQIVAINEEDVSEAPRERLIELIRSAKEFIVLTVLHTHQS
PTPN3, P26045, sequence (P26045 505-587): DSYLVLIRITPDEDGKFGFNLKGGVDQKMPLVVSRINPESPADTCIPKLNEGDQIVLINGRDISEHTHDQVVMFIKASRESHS

B1: KCNA4, P22459 (peptide)
chain: SNAKAVETDV
B1: the pKd with SNTG1, Q9NSN8 (setting [1]) is 4.89; in the assay with DLG1_1, Q12959 (setting [1]), 4.72; with FRMPD3, Q5JV73 (setting [1]) it was “below the threshold”; with HTRA1, Q92743 (setting [1]), “below the threshold”; with LNX2_2, Q8N448 (setting [1]) it was 3.51; with TJP3_3, O95049 (setting [1]) it was “below the threshold”. Moreover, the negative-log Kd (pKd) entry in the assay with PCLO, Q9Y6V0 (setting [1]) is “below the threshold”; in the assay with PTPN13_1, Q12923 (setting [1]) it was “below the threshold”; with IL16_1, Q14005 (setting [1]), “below the threshold”; with PTPN3, P26045 (setting [1]), 4.53; in the assay with PARD3_3, Q8TEW0 (setting [1]) it was “below the threshold”; with LIN7C, Q9NUP9 (setting [1]), “below the threshold”. Besides, the negative logarithm of the Kd (pKd) result is “below the threshold” in the assay with GRID2IP_1, A4D2P6 (setting [1]); 3.77 with LNX1_1, Q8TBB1 (setting [1]); “below the threshold” with APBA2_2, Q99767 (setting [1]); “below the threshold” in the assay with GRIP1_3, Q9Y3R0 (setting [1]); “below the threshold” with APBA3_1, O96018 (setting [1]); “below the threshold” with LNX2_3, Q8N448 (setting [1]). Also, the negative-log Kd (pKd) result was “below the threshold” with ARHGAP21, Q5T5U3 (setting [1]); “below the threshold” with MPDZ_12, O75970 (setting [1]); “below the threshold” with GRIP2_7, Q9C0E4 (setting [1]); “below the threshold” in the assay with LNX1_2, Q8TBB1 (setting [1]); “below the threshold” with GRIP2_4, Q9C0E4 (setting [1]); 4.37 with SYNJ2BP, P57105 (setting [1]).

B2: NHERF1, O14745 (peptide)
chain: SKKNELFSNL
Take B2: the negative-log Kd (pKd) result in the assay with SNTG1, Q9NSN8 (setting [2]) is “below the threshold”; with DLG1_1, Q12959 (setting [2]), “below the threshold”; in the assay with FRMPD3, Q5JV73 (setting [2]) it was “below the threshold”; with HTRA1, Q92743 (setting [2]), “below the threshold”; with LNX2_2, Q8N448 (setting [2]), “below the threshold”; in the assay with TJP3_3, O95049 (setting [2]) it was “below the threshold”. Further, the pKd entry with PCLO, Q9Y6V0 (setting [2]) is recorded as “below the threshold”; with PTPN13_1, Q12923 (setting [2]), “below the threshold”; with IL16_1, Q14005 (setting [2]), “below the threshold”; in the assay with PTPN3, P26045 (setting [2]) it was “below the threshold”; with PARD3_3, Q8TEW0 (setting [2]), “below the threshold”; with LIN7C, Q9NUP9 (setting [2]), “below the threshold”. Further, the pKd result is “below the threshold” with GRID2IP_1, A4D2P6 (setting [2]); “below the threshold” with LNX1_1, Q8TBB1 (setting [2]); “below the threshold” with APBA2_2, Q99767 (setting [2]); “below the threshold” in the assay with GRIP1_3, Q9Y3R0 (setting [2]); “below the threshold” with APBA3_1, O96018 (setting [2]); “below the threshold” with LNX2_3, Q8N448 (setting [2]). The pKd entry is “below the threshold” with ARHGAP21, Q5T5U3 (setting [2]); “below the threshold” in the assay with MPDZ_12, O75970 (setting [2]); “below the threshold” with GRIP2_7, Q9C0E4 (setting [2]); “below the threshold” in the assay with LNX1_2, Q8TBB1 (setting [2]); “below the threshold” in the assay with GRIP2_4, Q9C0E4 (setting [2]); “below the threshold” in the assay with SYNJ2BP, P57105 (setting [2]).

B3: SLC15A5, A6NIM6 (peptide)
chain: SSIDLWETAL
For B3, the pKd was 5.41 with SNTG1, Q9NSN8 (setting [3]); 4.43 with DLG1_1, Q12959 (setting [3]); 4.31 with FRMPD3, Q5JV73 (setting [3]); 4.25 with HTRA1, Q92743 (setting [3]); “below the threshold” with LNX2_2, Q8N448 (setting [3]); “below the threshold” with TJP3_3, O95049 (setting [3]). Moreover, the pKd entry is “below the threshold” with PCLO, Q9Y6V0 (setting [3]); “below the threshold” in the assay with PTPN13_1, Q12923 (setting [3]); 4.29 in the assay with IL16_1, Q14005 (setting [3]); 5.4 with PTPN3, P26045 (setting [3]); 4.44 in the assay with PARD3_3, Q8TEW0 (setting [3]); 5.21 in the assay with LIN7C, Q9NUP9 (setting [3]). Besides, the negative-log Kd (pKd) result in the assay with GRID2IP_1, A4D2P6 (setting [3]) is “below the threshold”; with LNX1_1, Q8TBB1 (setting [3]), 3.97; with APBA2_2, Q99767 (setting [3]), “below the threshold”; with GRIP1_3, Q9Y3R0 (setting [3]), “below the threshold”; with APBA3_1, O96018 (setting [3]), “below the threshold”; with LNX2_3, Q8N448 (setting [3]) it was “below the threshold”. For the same molecule, the pKd with ARHGAP21, Q5T5U3 (setting [3]) was 4.55; in the assay with MPDZ_12, O75970 (setting [3]), “below the threshold”; with GRIP2_7, Q9C0E4 (setting [3]), “below the threshold”; with LNX1_2, Q8TBB1 (setting [3]) it was “below the threshold”; with GRIP2_4, Q9C0E4 (setting [3]), “below the threshold”; with SYNJ2BP, P57105 (setting [3]) it was 5.45.

B4: HPV82-E6, Q9IR59 (peptide)
chain: PPRQRSETQV
On to B4, for which the pKd in the assay with SNTG1, Q9NSN8 (setting [3]) was 3.99; in the assay with DLG1_1, Q12959 (setting [3]), 4.75; in the assay with FRMPD3, Q5JV73 (setting [3]) it was “below the threshold”; in the assay with HTRA1, Q92743 (setting [3]), “below the threshold”; in the assay with LNX2_2, Q8N448 (setting [3]) it was 3.73; with TJP3_3, O95049 (setting [3]), “below the threshold”. Also, the pKd entry is “below the threshold” with PCLO, Q9Y6V0 (setting [3]); “below the threshold” with PTPN13_1, Q12923 (setting [3]); “below the threshold” with IL16_1, Q14005 (setting [3]); 4.31 in the assay with PTPN3, P26045 (setting [3]); “below the threshold” with PARD3_3, Q8TEW0 (setting [3]); 3.64 with LIN7C, Q9NUP9 (setting [3]). The negative-log Kd (pKd) entry in the assay with GRID2IP_1, A4D2P6 (setting [3]) is recorded as “below the threshold”; with LNX1_1, Q8TBB1 (setting [3]) it was “below the threshold”; with APBA2_2, Q99767 (setting [3]), “below the threshold”; with GRIP1_3, Q9Y3R0 (setting [3]), “below the threshold”; in the assay with APBA3_1, O96018 (setting [3]), “below the threshold”; with LNX2_3, Q8N448 (setting [3]), “below the threshold”. Further, the negative-log Kd (pKd) entry was “below the threshold” with ARHGAP21, Q5T5U3 (setting [3]); “below the threshold” with MPDZ_12, O75970 (setting [3]); “below the threshold” with GRIP2_7, Q9C0E4 (setting [3]); “below the threshold” with LNX1_2, Q8TBB1 (setting [3]); “below the threshold” with GRIP2_4, Q9C0E4 (setting [3]); 4.86 with SYNJ2BP, P57105 (setting [3]).
